Biological target: T1, human C1s (human, UniProt P09871 16-688)
T1 sequence: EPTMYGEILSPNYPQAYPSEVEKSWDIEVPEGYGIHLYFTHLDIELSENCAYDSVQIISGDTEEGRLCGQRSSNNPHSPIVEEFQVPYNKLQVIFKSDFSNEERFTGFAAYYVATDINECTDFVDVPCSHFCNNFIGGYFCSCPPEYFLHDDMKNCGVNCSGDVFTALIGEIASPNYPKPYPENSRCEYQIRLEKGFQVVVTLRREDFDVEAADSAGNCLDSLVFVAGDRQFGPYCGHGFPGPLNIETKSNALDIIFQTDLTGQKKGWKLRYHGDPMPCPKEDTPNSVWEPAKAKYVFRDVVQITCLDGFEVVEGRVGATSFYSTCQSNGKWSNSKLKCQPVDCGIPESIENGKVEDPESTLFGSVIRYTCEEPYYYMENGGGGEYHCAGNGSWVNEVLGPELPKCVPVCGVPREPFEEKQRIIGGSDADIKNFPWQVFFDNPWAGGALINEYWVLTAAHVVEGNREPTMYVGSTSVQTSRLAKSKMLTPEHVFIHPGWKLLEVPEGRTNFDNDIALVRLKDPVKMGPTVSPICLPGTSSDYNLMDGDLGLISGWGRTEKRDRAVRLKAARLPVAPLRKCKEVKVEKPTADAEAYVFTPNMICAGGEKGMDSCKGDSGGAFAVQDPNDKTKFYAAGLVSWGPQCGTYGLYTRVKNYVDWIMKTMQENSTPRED
Assay: cell-based or functional assay

B1: BIVV009 (antibody, human IgG4 S228P, kappa, V domains shown)
VH: EVQLVESGGGLVKPGGSLRLSCAASGFTFSNYAMSWVRQAPGKGLEWVATISSGGSHTYYLDSVKGRFTISRDNSKNTLYLQMNSLRAEDTALYYCARLFTGYAMDYWGQGTLVTVSS
VL: QIVLTQSPATLSLSPGERATMSCTASSSVSSSYLHWYQQKPGKAPKLWIYSTSNLASGVPSRFSGSGSGTDYTLTISSLQPEDFATYYCHQYYRLPPITFGQGTKLEIKR
- IC50 (concentration associated to 50% of the maximum effect) on serum classical complement pathway (CP) activity, WIESLAB assay, inhibitory Emax model: 6.2 µg/mL

Reference: US20250145696A1 (BIOVERATIV USA, published 2025)
